The text below walks through data of US20250295792A1, “POLYETHYLENE GLYCOL-MODIFIED FORM OF KININ OR DERIVATIVE THEREOF AND PHARMACEUTICAL USE THEREOF” (ZonHon Biopharma Institute, Inc., priority 2022, published 2025).

Where no end group is shown, it is not given here. [ ]: non-standard residue; d: D form. 2Thi = N[C@@H](Cc1cccs1)C(=O)O

B2 receptor, sequence (P30411 whole entry): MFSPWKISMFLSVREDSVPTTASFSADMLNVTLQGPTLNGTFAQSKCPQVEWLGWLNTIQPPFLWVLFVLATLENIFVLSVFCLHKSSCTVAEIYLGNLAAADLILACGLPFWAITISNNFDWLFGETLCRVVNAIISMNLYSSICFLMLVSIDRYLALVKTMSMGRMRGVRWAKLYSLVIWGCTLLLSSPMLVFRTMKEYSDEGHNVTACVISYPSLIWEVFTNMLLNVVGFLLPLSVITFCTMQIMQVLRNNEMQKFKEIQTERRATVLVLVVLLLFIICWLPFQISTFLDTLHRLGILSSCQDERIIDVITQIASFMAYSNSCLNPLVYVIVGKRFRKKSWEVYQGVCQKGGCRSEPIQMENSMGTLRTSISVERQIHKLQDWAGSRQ

This assay concerns the target B2 receptor. Briefly: cell-based or functional assay.
For the molecule [2Thi]SPFR [Lys-BKm09], the Relative affinity activity (B2-NFAT-CHO-K1 luciferase reporter gene assay, from EC50) was determined as 0%.

CRRPPG[2Thi]SPFR [Lys-BKm13]: the Relative affinity activity (B2-NFAT-CHO-K1 luciferase reporter gene assay, from EC50) turned out to be 115%.

Take CRPPG[2Thi]SPFR [Lys-BKm15]: the Relative affinity activity (B2-NFAT-CHO-K1 luciferase reporter gene assay, from EC50) worked out at 125%.

On to RPPG[2Thi]SPFR [Lys-BKm02], for which the Relative affinity activity (B2-NFAT-CHO-K1 luciferase reporter gene assay, from EC50) turned out to be 100%.

As to CRRRPPG[2Thi]SPFR [Lys-BKm16], the Relative affinity activity (B2-NFAT-CHO-K1 luciferase reporter gene assay, from EC50) is 120%.

For the molecule KRPPGXSPF ({THI} (β-2-thiophenylalanine) at position 6: KRPPG{THI}SPF) [Lys-BKm05], the Relative affinity activity (B2-NFAT-CHO-K1 luciferase reporter gene assay, from EC50) is less than 10%.

For SPFR [Lys-BKm10], the Relative affinity activity (B2-NFAT-CHO-K1 luciferase reporter gene assay, from EC50) came out at 0%.

For the molecule PG[2Thi]SPFR [Lys-BKm08], the Relative affinity activity (B2-NFAT-CHO-K1 luciferase reporter gene assay, from EC50) was less than 10%.
